The source of these data is US9283300B2, “Use of midkine protein and the protein-containing medical device” (GENERAL REGENERATIVES, LTD, priority 2009, dated 2016).

The subject of assay [1] is cartilage of normal rat (articular, ear, tracheal, intervertebral disc). Nature of the assay: rhMK effect on cartilage thickness of normal rats (subcutaneous injection, histology). The class given is in vivo. The following applies: rhMK 175 μg/kg s.c. daily for a week. As to the method:
(§1) Method. 8-weeks-old male C57BL/6J mice were injected subcutaneously with recombinant human MK (rhMK) or control saline. The injection volume was 0.5 ml, given daily for a week. The mice were grouped (3 animals per group): Saline (NS) group, rhMK groups injected with various dosages at 10, 33, 100, 300, 900 μg/kg. Rats were injected with saline or rhMK (175 μg/kg) daily for a week. Rabbits were injected with saline or rhMK (92.5 μg/kg) daily for two week. Histological observation and evaluation. The knee joint tissues of all mice and rats were fixed in 10% (v/v) formalin for 1 day, the tissues of rabbits were fixed for 2 days. The fixed tissues were subjected to demineralization in liquid (7% AlCl3.6H2O, 5% methanoic acid, 8.5% HCl) 4 days for mouse and rats issues, and 10 days for rabbit tissues. The demineralized tissues were subjected to dehydration by gradient ethanol, and treated for transparency by xylene, and embedded in wax. Tissue sections were prepared by the paraffin slicing machine (Laica), and stained with hemotoxylin/eosin or Safranine O/fast green staining. Slides were observed under microscope and analyzed. The thickness of cartilage tissues were measured by the vernier caliper on microscope. Three tissue sections from each sample were measured and analyzed statisticaly. The distance between surface of cartilage to subchondral tide line was measured at ½ position of femoral condyle to denote the thickness of knee-joint cartilage. The thickness of cartilage at central part of ears was measured to denote the thickness of ear elastic cartilage. The distance between out surface of annulus to nucleus of the intervertebral disc was measured to denote the thickness of thoracic intervertebral disc (T2-3). To verify the results of rhMk in mice, we performed the same experiments in vivo using commonly used laboratory animals, rat and rabbit. Rats were injected subcutaneously with rhMK at 175 μg/kg/day for one week, and rabbits was injected subcutaneously 92.5 ug/kg/day for two weeks. […] The injection dose of rhMK: mice was injected subcutaneously 300 μg/kg daily for a week; rats were injected 175 μg/kg daily for a week; and New Zealand rabbits was injected 92.5 μg/kg daily for two weeks. Three animals per group were analyzed.

Assay [2] concerns cartilage of normal New Zealand rabbit (articular, ear, tracheal, intervertebral disc). Nature of the assay: rhMK effect on cartilage thickness of normal rabbits (subcutaneous injection, histology). Type of assay: in vivo. The following applies: rhMK 92.5 μg/kg s.c. daily for two weeks. As to the method: as §1
Assay [3] has as its system partial-thickness injury of rabbit knee cartilage. Nature of the assay: Partial-thickness cartilage defect of adult rabbit knee joint, intra-articular rhMK. The class given is in vivo, New Zealand white rabbits. The following applies: adult rabbit knee cartilage partial-thickness injury model, 4 and 9 weeks after surgery, versus saline side. The procedure: Method. 9˜10-month-old male New Zealand white rabbits (3.0˜3.5 kg weight) were anesthetized with 3% pentobarbital sodium (30 mg/kg) by ear vein injection. After anesthesia, the skin was prepared on both sides of the knees. With conventional surgical sterilization and under sterile conditions, the inner side of the knees was cut to expose the femoral condyle surface. A hand-drill was used to make a partial-thickness cartilage injury of 3 mm in diameter on the femoral condyle surface. The partial-thickness injury was created by the criterion of no bleeding in the injured cartilage hole. The wound was sutured with 4-0 lines. 400,000 units penicillin was injected every day for one week to prevent the wound site infection. 24 h after the surgery, normal saline or rhMK was injected into the knee-articular cavity. Partial-thickness cartilage damages were created on both rabbit knees. One knee received 0.5 ml saline as control side, while 0.5 ml rhMK was given into the other knees as treatment side. The injections were given three times a week, for 2 weeks totally. The rabbits were kept in cage and allowed freedom of movement without the knee fixed. 4 and 9 weeks after the surgery, rabbits were sacrificed. The knee-joint cartilage tissues were removed for routine biopsy, H&E, and toluidine blue staining, and their histological changes were analyzed under microscope.

Assay [4] concerns ACLT-induced rat knee cartilage damage. Kind of assay: Osteoarthritis induced by anterior cruciate ligament transection (ACLT) of rat knee, intra-articular rhMK. Type of assay: in vivo, SD rats. As to the method: Method. 7-week-old male SD rats (250-330 g weight) were anesthetized with 3% pentobarbital sodium (30 mg/kg) by intraperitoneal injection. After anesthesia, the skin was prepared on both sides of the knees. With conventional surgical sterilization and under sterile conditions, the skin and subcutaneous tissue of the knees was cut open from the middle of front knee. The joint capsule was cut along the inner side of the white patellar tendon resulting in patellar dislocation. The anterior cruciate ligament was identified and cut with ophthalmic scissors. The knee was straightened, the patella was relocated, and the wound was sutured layer by layer. Amikacin (100,000 U/ml, injection concentration of 10 mg/kg, a dose of 1 μl/10 g body weight) was injected every day for 4 days to prevent the wound site infection. 14 weeks after the surgery, saline or rhMK was injected into the knee-articular cavity. The rats in sham group without ACLT surgery were not treated; The rats in the ACLT/saline group were injected with 100 μl saline; The rats in ACLT/rhMK-L group were injected with 100 μl rhMK (58.3 μg/kg); In ACLT/rhMK-H group, 100 μl rhMK (525 μg/kg) was given. The injections were given three times one week and continued for two weeks. The rats were maintained in cages with free movement. The rats were sacrificed 2 or 6 weeks after the initiation of the treatments. […]

Assay [5] deals with rat primary chondrocytes. Nature of the assay: Serum-free culture of chondrocytes. The class given is cell-based. The settings on record: for promotion of cell expansion over the control cultures without rhMK: serum-free medium after 24 h in DMEM with 10% FBS. The procedure: 1. Preparation of primary chondrocyte. The 8-week-old male SD rats were sacrificed under sterile conditions. The articular cartilage, fibrocartilage and elastic cartilage tissue were isolated from the femur joints, meniscus and outer ear respectively using a scalpel. The isolated cartilage were cut into small pieces, washed twice with phosphate buffered saline (PBS), and digested with trypsin (0.25% (w/v) trypsin/0.02% (w/v) EDTA) at 37° C. for 30 min. The articular cartilage and elastic cartilage were further digested with 0.2% type II collagenase for additional 16 h, and the fibrocartilage were further digested with 0.15% type I collagenase for additional 16 h. After digestion, three chondrocytes were passed through 100 μm filter (Falcon, USA) into 15 ml centrifuge tubes, centrifuged at room temperature at 2000 rpm for 5 min. Cells were resuspended in DMEM containing 10% FBS (fetal bovine serum). Trypan blue staining of the freshly isolated cells was used to monitor the percentage of live cells under the microscope. When the number of live cells is more than 95%, it was used for subsequent experiments.
4. Serum-free culture. The primary chondrocytes were cultured with DMEM containing 10% FBS for 24 h and washed with serum-free culture medium once. The cells were further cultured with DMEM medium with ITS+1 (composed of insulin-transferrin-selenium, Sigma, USA). […] Cell medium was changed every two days. When cells grew to the confluence of 85% to 90%, they were collected by trypsin-digestion and subcultured as previously described.

B1: rhMK: recombinant human midkine mature protein (SEQ ID NO.1) expressed in E. coli and purified by ion-exchange chromatography (protein, listed as Homo sapiens)
chain: MKKKDKVKKGGPGSECAEWAWGPCTPSSKDCGVGFREGTCGAQTQRIRCRVPCNWKKEFGADCKYKFENWGACDGGTGTKVRQGTLKKARYNAQCQETIRVTKPCTPKTKAKAKAKKGKGKD
Take B1: in assay [1], the Cartilage thickness, Ear came out at 107 ± 3.4 µm; the Cartilage thickness, Femoral condyle was determined as 263 ± 54.4 µm; the Cartilage thickness, Intervertbral disc (T2-3) came to 659 ± 40.8 µm; the Cartilage thickness, Trachea is 246 ± 9.1 µm. In assay [2], this molecule had a Cartilage thickness, Ear of 605.4 ± 5.4 µm; a Cartilage thickness, Femoral condyle of 612 ± 6.4 µm; a Cartilage thickness, Intervertbral disc (T2-3) of 1520 ± 54 µm; a Cartilage thickness, Trachea of 495 ± 6.5 µm. For the same molecule, in assay [3], the “repair of injured cartilage (histology)” value is “repairs the injured cartilage with regenerated cartilage tissues”. In addition, the histological scores entry in assay [4] (ACLT/rhMK groups (58.3 and 525 μg/kg intra-articular) versus ACLT/saline group, P<0.05 Kruskal-wallis Test) is given as “statistically lower than that of the ACLT/saline group”. Further, the “regenerated cartilage layer thickness (histology)” value in assay [4] (ACLT/rhMK groups versus ACLT/saline group, 18 weeks after ACLT surgery) was “significantly thicker than that of ACLT/saline group”. Besides, in assay [5] (passage 1), the “promotion of cell expansion over the control cultures without rhMK” value was 34%. Besides, the “promotion of cell expansion over the control cultures without rhMK” value in assay [5] (passage 2) was 51%. Besides, the “promotion of cell expansion over the control cultures without rhMK” value in assay [5] (passage 3) turned out to be 18%. Moreover, the “cell attachment and proliferation in serum-free medium” value in assay [5] (three types of chondrocytes cultured directly in serum-free medium, rhMK 3 μg/ml) is “did not make the cell attachment and proliferation”.
